In US20260274955A1 (JANUX THERAPEUTICS, published 2026):

target: T1, Anti-CD28 Fab (SEQ ID NOs: 202, 203); assay: phage ELISA, Fab on plate;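 further: crude clonal phage supernatants added to wells pretreated with blocking buffer with or without CD28 antigen, then bound phage read out via HRP-linked anti-M13 antibody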
T1 construct: biotinylated and captured on neutravidin coated plates in the phage ELISA
T1 sequence (VH, as listed by the source, chain 1 of 2): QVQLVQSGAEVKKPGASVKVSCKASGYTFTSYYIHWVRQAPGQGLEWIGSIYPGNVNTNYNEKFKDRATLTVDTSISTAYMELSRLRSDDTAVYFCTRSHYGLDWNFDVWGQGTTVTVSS
T1 sequence (VL, as listed by the source, chain 2 of 2): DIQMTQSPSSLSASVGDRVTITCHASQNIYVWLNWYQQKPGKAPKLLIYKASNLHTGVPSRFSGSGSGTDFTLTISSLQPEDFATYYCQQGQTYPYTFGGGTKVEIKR
Protocol: (§1) After panning, phage infected bacteria were plated out and colonies picked into 96 well blocks. Clonal phage was then amplified and separated from bacterial cells via centrifugation.
(§2) Clonal phage were harvested as crude supernatants and screened via standard ELISAs. […] Prior to the addition of clonal phage, wells were incubated with blocking buffer and CD28 antigen or blocking buffer alone. Without washing or aspirating, clonal phage supernatants were then added to the wells and incubated for a short time. Wells were then washed followed by detection of bound phage using a horse radish conjugated anti-M13 antibody. Clonal phage of interest were then sent for sequence analysis.

Binder | Anti-CD28 Fab (SEQ ID NOs: 202, 203) signal
YCAGHSAEYMSKCL [Phage-612] | 1.41
YCDGHSLEYIDKCM [Phage-607] | 1.42
YCDGHLDEYMLKCL [Phage-603] | 1.43
YCVGHLPQYMQKCL [Phage-599] | 1.43
YCDGHTPEYMWKCL [Phage-604] | 1.43
YCDGHTKEYMWKCL [Phage-736] | 1.1
YCDGHLMEYKAKCL [Phage-613] | 1.41
YCDGHSLEYIEKCL [Phage-601] | 1.43
YCEGHSQQYMQKCL [Phage-605] | 1.42
YCEGHSQQYMWKCL [Phage-711] | 1.17
YCEGHSQTYMWKCL [Phage-709] | 1.17
YCEGHSYQYMQKCL [Phage-715] | 1.16
YCAGHAEEYLEKCL [Phage-610] | 1.41
YCDGHAPEYLGKCL [Phage-609] | 1.41
YCDGHSPEYMQKCL [Phage-617] | 1.4
YCDGHSHEYMQKCL [Phage-611] | 1.41
YCDGHLQEYMQKCL [Phage-627] | 1.38
YCDGHLPEYMQKCL [Phage-643] | 1.35
YCEGHSAEYIAKCL [Phage-614] | 1.41
YCLGHSWPYIHKCY [Phage-602] | 1.43
YCDGHLPEYIAKCQ [Phage-600] | 1.43
YCDGHSPAFIQKCL [Phage-606] | 1.42
YCQGHSPNYITKCF [Phage-608] | 1.41

target: T2, anti-CD28 Fab (SEQ ID NOs: 202, 203); assay: phage ELISA on captured Fab;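 further: ELISA with clonal phage supernatants added to wells preincubated with CD28 antigen or with blocking buffer only, bound phage detected by HRP-conjugated anti-M13 antibody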
T2 construct: biotinylated and captured on neutravidin coated plates in the phage ELISA
T2 sequence (VH, as listed by the source, chain 1 of 2): as the sequence (VH, as listed by the source, chain 1 of 2) above
T2 sequence (VL, as listed by the source, chain 2 of 2): as the sequence (VL, as listed by the source, chain 2 of 2) above
Protocol: (§3) Clonal phage were harvested as crude supernatants and screened via standard ELISAs. […] Prior to the addition of clonal phage, wells were incubated with blocking buffer and CD28 antigen or blocking buffer alone. Without washing or aspirating, clonal phage supernatants were then added to the wells and incubated for a short time. Wells were then washed followed by detection of bound phage using a horse radish conjugated anti-M13 antibody.

Binder | Anti-CD28 Fab (SEQ ID NOs: 202, 203) signal
YCAGHTQEYIEKCL (on phage, pIII fusion) [Phage-579] | 1.47
YCEGHTPVYMPKCL (on phage, pIII fusion) [Phage-585] | 1.46
YCEGHLDQYMTKCL (on phage, pIII fusion) [Phage-578] | 1.47
YCDGHLEIYMSKCL (on phage, pIII fusion) [Phage-581] | 1.46
YCDGHLAIYIGKCL (on phage, pIII fusion) [Phage-580] | 1.47
YCDGHSLEYMVKCL (on phage, pIII fusion) [Phage-583] | 1.46
YCEGHSLEHIAKCL (on phage, pIII fusion) [Phage-584] | 1.46
YCDGHVAEYRHKCL (on phage, pIII fusion) [Phage-577] | 1.47

target: Anti-CD28 Fab (SEQ ID NOs: 202, 203); assay: phage binding ELISA on captured Fab;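 further: clonal phage supernatants added briefly to wells pre-incubated with CD28 antigen or with blocking buffer only, then washed, bound phage read by ELISA using HRP-coupled anti-M13 antibody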
Target sequence in this assay (VH, as listed by the source, chain 1 of 2): as the sequence (VH, as listed by the source, chain 1 of 2) above
Target sequence in this assay (VL, as listed by the source, chain 2 of 2): as the sequence (VL, as listed by the source, chain 2 of 2) above
Protocol: as §3

Binder | Anti-CD28 Fab (SEQ ID NOs: 202, 203) signal
YCDGHLAEYIQKCL [Phage-759] | 1.04
YCFGHAPEYLLKCL [Phage-763] | 1.01
YCDGHVGAYMWKCL [Phage-771] | 0.99
YCDGHLLMYMEKCL [Phage-800] | 0.91
YCEGHIEQYMRKCL [Phage-762] | 1.01
YCEGHDWMYMEKCL [Phage-801] | 0.91
YCDGHLEVYMSKCL [Phage-767] | 1
YCEGHSQEYKAKCF [Phage-802] | 0.9
YCEGHISEYMGKCL [Phage-808] | 0.88
YCEGHIEPYMQKCL [Phage-769] | 0.99
YCDGHIAEYRSKCL [Phage-810] | 0.87
YCEGHSSAYMAKCL [Phage-804] | 0.9
YCDGHKPEYMDKCL [Phage-770] | 0.99
YCEGHSSVYLWKCL [Phage-765] | 1
YCAGHSSEYLQKCL [Phage-760] | 1.03
YCEGHSWIYIAKCL [Phage-766] | 1
YCDGHSTLYMQKCL [Phage-806] | 0.88
YCAGHSQVYMWKCL [Phage-761] | 1.02
YCEGHLAAYMYKCL [Phage-805] | 0.89
YCDGHVLMYLAKCL [Phage-803] | 0.9
YCEGHRPEYMANCL [Phage-768] | 1
YCEGHLSEYIGKCL [Phage-811] | 0.87
YCDGHTEAYMSKCL [Phage-807] | 0.88
YCDGHFTWYMAKCL [Phage-809] | 0.87
YCEGHLREYMLKCL [Phage-764] | 1.01
YCDGHTAQYMWKCL [Phage-812] | 0.87

target: T1, Anti-CD28 Fab (SEQ ID NOs: 202, 203); assay: phage ELISA, Fab on plate, CD28 antigen as competitor
Protocol: as §1, §2

Binder | Anti-CD28 Fab signal in the presence of CD28
YCAGHSAEYMSKCL [Phage-612] | 0.07
YCDGHSLEYIDKCM [Phage-607] | 0.09
YCDGHLDEYMLKCL [Phage-603] | 0.06
YCVGHLPQYMQKCL [Phage-599] | 0.06
YCDGHTPEYMWKCL [Phage-604] | 0.06
YCDGHTKEYMWKCL [Phage-736] | 0.06
YCDGHLMEYKAKCL [Phage-613] | 0.06
YCDGHSLEYIEKCL [Phage-601] | 0.06
YCEGHSQQYMQKCL [Phage-605] | 0.08
YCEGHSQQYMWKCL [Phage-711] | 0.05
YCEGHSQTYMWKCL [Phage-709] | 0.08
YCEGHSYQYMQKCL [Phage-715] | 0.06
YCAGHAEEYLEKCL [Phage-610] | 0.15
YCDGHAPEYLGKCL [Phage-609] | 0.06
YCDGHSPEYMQKCL [Phage-617] | 0.53
YCDGHSHEYMQKCL [Phage-611] | 0.06
YCDGHLQEYMQKCL [Phage-627] | 0.06
YCDGHLPEYMQKCL [Phage-643] | 0.08
YCEGHSAEYIAKCL [Phage-614] | 0.09
YCDGHNWEYMEKCL [Phage-622] | 0.05
YCLGHSWPYIHKCY [Phage-602] | 0.07
YCDGHLPEYIAKCQ [Phage-600] | 0.07
YCDGHSPAFIQKCL [Phage-606] | 0.08
YCQGHSPNYITKCF [Phage-608] | 0.06
